Measured values: article PMC8248988, “A signal capture and proofreading mechanism for the KDEL-receptor explains selectivity and dynamic range in ER retrieval” (eLife, 2021)

Tested on: PDI
Experiment: ER chaperone secretion assay, PDI
Format: cell-based, human
Excerpt: Figure 1. ER retrieval signal abundance and affinity are not correlated. (a) Sequence logos for ER resident proteins with C-terminal KDEL retrieval signals and variants thereof calculated using frequency or protein abundance ([Itzhak et al., 2017]; [Itzhak et al., 2016]). (b) Combined cellular concentrations of ER resident proteins with canonical KDEL, RDEL, and HDEL retrieval sequences in HeLa cells and mouse brain. (c) Competition binding assays for [^3H]-TAEHDEL and unlabelled TAEKDEL, TAERDEL, and TAEHDEL to the KDEL receptor. IC50 values for the competing peptides were used to calculate the apparent KDwith the Cheng-Prusoff equation ([Cheng and Prusoff, 1973]). (d) Endogenous KDEL receptor redistribution was measured in COS-7 cells in the absence (-ligand) or presence of K/R/H/A/DDEL (mScarlet-xDEL^sec). TGN46 was used as a Golgi marker. Scale bar is 10 µm. (e) The mean difference for K/R/H/A/DDEL comparisons against the shared no ligand control are shown as Cummings estimation plots. The individual data points for the fraction of KDEL receptor fluorescence in the Golgi are plotted on the upper axes with sample sizes and p values. Figure 1—source data 1. Source data for the ligand-induced KDELR receptor retrieval assays in Figure 1e. Figure 1—figure supplement 1. Abundance of ER resident proteins and chaperones in human cells and mouse brain. (a) The mean concentration of ER resident chaperones with the indicated ER retrieval sequence variant is plotted in the bar graph ([Itzhak et al., 2017]; [Itzhak et al., 2016]). […] Endogenous ER chaperone secretion was measured by western blotting after challenge with different retrieval signals, and plotted as a bar graph showing mean ± SEM (n = 3). […] (a) Distribution of human KDELR1 and (b) KDELR2 was measured in COS-7 cells in the absence (-ligand) or presence of K/R/H/A/DDEL retrieval signals (K/R/H/A/DDEL^sec). […] The fraction of KDEL receptor localised to the Golgi was measured before (no ligand) and after challenge with different retrieval signals as indicated. […]

In the case of “ADEL [pcDNA3.1 hGHss-mScarlet-H. sapiens BiP639-654K651A (ADEL^SEC), secreted mScarlet fusion with human BiP C-terminus, ADEL signal]”, the “PDI secretion after challenge with retrieval signal” value (from here on “PDI secretion after challenge”) (mean, HeLa S3, 24 hr, Western blot densitometry) is reported as 6.6, the “PDI secretion after challenge” value (replicate 1) is reported as 7.3 and the “PDI secretion after challenge” value (replicate 2) is reported as 6.0.
